Results as given in the supplement of paper PMC12042874.
± gives the uncertainty stated by the source.

Experiment: amyloid nucleation score (Sup35N fusion, yeast selection) (log enrichment); library NNK2; higher = more nucleation; inactive = no reads after selection
Procedure, shortened: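 The nucleation score is a DiMSum log enrichment of output over input reads, centred on the mode score of non-aggregating sequences. Sequences under 100 input reads were excluded, and reads came from Illumina sequencing of plasmid inserts. Psi-negative yeast expressing Sup35N fused to peptides of 20 random codons were induced with 100 μM copper sulfate for 24 hours and grown 7 days at 30°C on medium lacking adenine and uracil. Random libraries had three technical output replicates.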

Substance | amyloid nucleation score
KLTFSCGGLGGNLYVWL | 7.999 ± 0.042
NVFFSFSMYKDAYNE | -0.937 ± 0.54
RFDSPG | 0.558 ± 0.4
APSGRHFFTFTPC | 0.605 ± 0.36
DRYYVFLILWTRGNTRRPTG | -1.02 ± 0.39
FSVRVTSRFIRYEGSFHFSK | 0.032 ± 0.76
SVLAAP | inactive
LRDCLIRNPLKLRTKLTGHV | 0.608 ± 0.3
YYMKFEAILKDQWSTVYN | inactive
IVFYFVFRILSYGGSTIPVG | -1.15 ± 0.64
YYMLVYWDV | 0.56 ± 0.44
LLLRGQLQVMPGDPARRMYV | 0.556 ± 0.29
DNCRYVKRSSYSRVCAHYKS | -0.627 ± 0.41
IIEIEGVCAFDWLRIFLILI | -1.27 ± 0.47
MRTNRLKSVV | 0.275 ± 0.33
TFRYFGDWNLQRGML | 0.85 ± 0.52
VVLLAKYQVCIICIKEDLSN | 3.78 ± 0.12
LVNKG | 3.15 ± 0.064
MEFDVLSIFQRGSRAGAK | -1.3 ± 0.54
SGFLIRKHAKLYKPDQPLLV | 0.101 ± 0.54
NQCISDPNSCSSCALL | inactive
GGFSLMIFVCAGSHLG | 5.26 ± 0.07
YVLPLPGNLNIMEAAGRYYA | 4.04 ± 0.057
YEFCSTRQRSELGGK | 5.24 ± 0.069
SQIWFTVTYGQYCYYIVSL | -0.33 ± 0.33

Substance | amyloid nucleation score
LWSFKYFSVCYNLWTIMKGG | inactive
LASAFG | -0.792 ± 0.79
MFLYTVTNARFYEWW | 0.102 ± 0.61
EGNRNEVSFYVMFSAVPSGL | 9.221 ± 0.059
YGFVDSHRTH | 0.092 ± 0.61
CNIVPYRPINGWIPDVLLED | -0.275 ± 0.79
FNIPGHSH | -1.51 ± 0.78
LIFRSVSVSFIPLLMKDGNG | -0.042 ± 0.74
HGGGVLHIFLNIAPLVS | 1.52 ± 0.28
QLFTMDN | -0.459 ± 0.78
FSMFMDIRRFMGSRWCV | 0.089 ± 1.1
RLYNKALYANFKNYSLTCFS | -0.39 ± 0.64
RYPLVKFQCYTGNYGKFGNL | 3.01 ± 0.071
LLMFRVRVDELWHGAARHMG | 1.64 ± 0.38
DMNVVYTVCRVKARDCERDY | 5.322 ± 0.041
RRRCFQLK | 0.294 ± 0.8
VRALRQPAT | 0.567 ± 0.27
VNFLGWSLVGKCRFQFWTVR | inactive
LNSQSLVAYMRAFVKDSPCR | 0.007 ± 1.1
RSLDIARAY | -1.06 ± 0.4
EIIYSQSDSVYGCGGY | inactive
LTCRTFYNNCVNEWSLHLSL | 4.07 ± 0.072
SNLEHSGWRTRMRWGL | 5.5 ± 0.079
MVGCFWVMFVGREIYSRVRS | -0.915 ± 0.26
SRVFRSRMDGPFQWSGMGEV | 2.24 ± 0.076

Substance | amyloid nucleation score
MKVGLLD | -0.49 ± 0.76
WWLKALPRVILARLVSRGQG | 0.458 ± 0.29
TSVNALFRWPRLFSYRREPV | 0.202 ± 0.79
CMSIHCVTTSRVLKFNSKWY | 3.11 ± 0.15
CYSLWRFEQMKLGMKLRGMT | 0.003 ± 0.43
EVSHAIYRWTLEKYCWNCHV | 0.09 ± 0.24
VSFKDTTGECGDLSYRKNAR | 0.646 ± 0.38
QGLIFVSLFRCCSLCRQYTD | 2.72 ± 0.18
RFEWVPGLSKGN | inactive
ARYMSQVRRTSSHTLNEKI | 0.545 ± 0.51
CIFILTD | -1.67 ± 0.45
RLNMYSLSRLVYWAIVMRKM | 0.823 ± 0.25
DRAVLRGVVSDNSV | 0.439 ± 0.74
VRVGCTWS | 0.618 ± 0.34
MDFVNTIATCNKKREVRFVI | -1.1 ± 0.36
LTTKKLRSWV | -0.895 ± 1.1
KKLYFWINAHNRELTLKTWV | 0.226 ± 0.54
RCHRNFVSWVEDLGRRSIGV | 4.53 ± 0.051
LSLYWVMSLKSQAP | 0.354 ± 0.64
CGMFWLSRYEFYRISSCRRL | 1.3 ± 0.14
HGYRLSHSQPKSTSSLV | -0.083 ± 0.63
CTSLLI | -0.545 ± 0.48
IILFEYCEF | -0.613 ± 1.1
GKYSLTTCAR | 0.449 ± 0.8
STQRIEDIEIVEQKCPACIG | 0.754 ± 0.3

Substance | amyloid nucleation score
TGFMVTFASST | 0.02 ± 0.22
LWGLYNREFNAWRGHFVQDG | inactive
QGCMVSRNRVQHVVGSGLRW | 0.727 ± 0.38
SFGHHPDYRNVMVESYNRMV | 0.259 ± 0.23
DVCMPIKKSITITTATVRVY | -0.545 ± 0.63
ASWYRMWMWCEHTSSRLCVK | 5.268 ± 0.037
GCCPAALFEFT | -1.07 ± 0.78
MKFVNINGAICSVRHPSVRT | 0.089 ± 0.79
NVFVCPAFQRTWVWMAVMSW | inactive
FAVTGFTWYMKIRCASIPLV | 1.65 ± 0.21
VYYTCYDE | 0.024 ± 0.4
CEEHDFMTSFICIAWAWKWL | -0.66 ± 0.48
NSSVCVRNRCGVWIDLKGII | 5.06 ± 0.095
LSLTNIYGKSIRDERIKTSC | -0.129 ± 0.65
DCISRY | 1 ± 0.68
LSTSWQRLVTILPLEWYHS | 0.052 ± 0.26
MGNSYIEVRSLYR | -0.578 ± 0.64
FGSALFSIILH | 5.607 ± 0.033
FNSCDAWYCMNSQVSRTTYL | -0.624 ± 0.41
LASLSDFPFYLTWWS | -0.157 ± 0.45
RVSIVCWIFVDSREHFFSVK | -0.818 ± 0.55
SSGFPE | -0.846 ± 0.42
DLGHTYTSMYGFLTPSRDVD | -0.052 ± 0.5
RFVDEPWNTRDTDFLYV | -0.368 ± 1.1
TTSVTGQC | -1.09 ± 0.55

Substance | amyloid nucleation score
LYRNSMRRDR | -0.669 ± 0.35
FRYIFRHKHGWTFLHKMVRK | -1.07 ± 1.1
LFEAWSIYIYFASLKGTAGG | -1.26 ± 1.1
FGFNCMGWYRDCAVTSTWGA | 0.809 ± 0.31
NHMGIVRVVLMFGSYITLI | -0.174 ± 0.45
MYYASIIEKYLYRNDLVGVG | 0.269 ± 0.33
SNCSLMGYCMYAYNGSDTGC | 4.58 ± 0.11
SGSIVRGLCVVFSCVFKGSL | -0.874 ± 0.56
FHISYDTSS | -0.35 ± 1.1
HSYLKLVGLCKNSKRFNHNF | inactive
YVGGTVGV | -0.807 ± 0.64
LYEVLESVMIGI | -0.097 ± 0.6
LHHFSVTYNSITFCLNFPFR | 4.11 ± 0.065
RELQNLFPHCILWSIIMKPN | -1.49 ± 1.1
QLYYMKF | 5.685 ± 0.042
FRVIWVVLVACQVSFHVRFV | -0.283 ± 1
GVYLGSPSYVDLSVALFSIV | 0.073 ± 0.29
YPSCKGSMPVFYSFPGGENA | 0.524 ± 0.5
DIWPNDLGYVFVLSA | -0.218 ± 0.53
LASTDTWHCVGGEFHKSA | -0.571 ± 0.28
GNVSYHSCVW | 0.449 ± 0.36
CFIFKWFYYCLSVSTIDMSV | -2.48 ± 1.1
WVFGLCSIPLHCVLHGIMMG | 2.92 ± 0.16
YGQLRHFVRTGLDGGTHRGL | -0.174 ± 0.76
ITSNSVHIGITNYYRRELDQ | 5.32 ± 0.056

Substance | amyloid nucleation score
CVLMTALNLRKRSVGMPFCW | 4.67 ± 0.077
FVLTSSMVLFWDGRNDARHG | 4.31 ± 0.08
FLNPYNFWLDFWYFLIDSMT | inactive
LSYVDWKCAVFDICW | 3.53 ± 0.043
SLARYAGGFRARSGKIFSVC | 0.802 ± 0.22
SSCRTSSWLALVWFGLGVSG | 0.177 ± 0.19
VRSKVFALVGAFSMIKFRGC | inactive
ILLVILLTRIVKRSFFYRGF | inactive
SFHWPSTGYKRVYFSPLLIV | inactive
KMSMSFSWWE | 3.51 ± 0.068
QMEDSMYLNALRGVSWVTKL | inactive
YSVFNTSNFSALDPRFRRLF | 0.201 ± 0.8
VLSRVDQSTGVIGQTGMVAC | 0.6 ± 0.17
FICPMYESSRIVV | 0.335 ± 0.64
IRALDGHGFSSPWARFGPAG | 0.755 ± 0.4
LTACRVLRLLKCSQRE | 4.68 ± 0.075
LFLSLKYPLSYYASTVDNLA | 0.6 ± 0.74
RMFVW | -0.341 ± 0.37
TSQLRMDGSSILMAHLKCYR | 0.441 ± 0.26
GVIWWPVTLCFWLCAKYIGL | -0.552 ± 1.1
GDGSRS | 0.813 ± 0.23
CNSQVVWFFRI | 4.69 ± 0.062
PNVCKLYMWQFGTLNQAPQR | 8.399 ± 0.065
MLRCQFTSTGFGNRLATFSD | 3.02 ± 0.15
FLSLIGKSRS | inactive

Substance | amyloid nucleation score
VIILRTPYVCSHYWSDPTVL | -0.138 ± 0.56
FFFVPSFDTLEHTLRVGLLR | inactive
HLSYILGVGMFNVHHDNGFF | 2.5 ± 0.2
VMNMRLLRANLPWTLAWRVQ | 0.122 ± 0.35
TYSVGSSYCLRRSFGAGFFS | 0.728 ± 0.25
HFKSDSSSSEMTRLVEPGGV | -0.125 ± 0.63
IFCLPIKKRVMYNHGLTIFG | 0.461 ± 0.29
CVNYYVYANHRRISYWW | -0.337 ± 1.1
LYQVRGTY | 0.353 ± 0.22
SGGAVAYREAKWWSASNLRS | 0.373 ± 0.24
FNMTIVDISLYRFMNVLKRP | -0.907 ± 0.78
HLVSSRGRMWPPFAPVGKQD | 0.492 ± 0.64
GVYKVGMVPWFIQFSDVGGR | 5.73 ± 0.068
TNIFR | -0.599 ± 1
FFQFTTDSHCND | 0.654 ± 0.8
LFVDKMCERDFYFVSSHRYR | 0.306 ± 0.8
YRPRDCISRVTYMRTVIVIL | -0.121 ± 1.1
YNCLRMELVLSHKGDLTLM | 5.25 ± 0.091
MFGHHKS | -0.5 ± 0.63
ICCCFIWP | 7.044 ± 0.044
IVHYVFFWMGGILGNHASFP | -1.31 ± 1.1
YFLLVVCGWHGFIIESLLRF | inactive
